Target: T1, Skip (Homo sapiens, UniProt Q13573)
T1 sequence (Q13573 1-536): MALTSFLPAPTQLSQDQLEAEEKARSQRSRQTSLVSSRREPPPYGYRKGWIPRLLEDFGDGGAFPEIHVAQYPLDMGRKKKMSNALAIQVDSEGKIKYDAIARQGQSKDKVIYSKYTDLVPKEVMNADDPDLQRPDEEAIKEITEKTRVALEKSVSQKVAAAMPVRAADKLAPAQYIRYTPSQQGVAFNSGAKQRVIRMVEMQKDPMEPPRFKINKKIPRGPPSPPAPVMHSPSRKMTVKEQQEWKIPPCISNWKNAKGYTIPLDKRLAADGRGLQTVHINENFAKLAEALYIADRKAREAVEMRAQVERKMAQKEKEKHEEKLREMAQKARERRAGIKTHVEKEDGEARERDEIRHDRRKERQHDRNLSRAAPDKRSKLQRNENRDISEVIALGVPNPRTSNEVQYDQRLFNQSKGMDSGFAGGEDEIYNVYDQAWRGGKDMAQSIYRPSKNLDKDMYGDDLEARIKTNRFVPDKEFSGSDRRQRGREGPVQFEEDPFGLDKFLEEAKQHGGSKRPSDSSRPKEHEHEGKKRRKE
Test: Immunoprecipitation analysis of HDART-Skip interaction in 293 cells
Type: binding
Design: expressed in transfected cells; host or cells: HEK293 cells
Method: The interaction between HDART and Skip inside the mammalian cells was confirmed according to the immunoprecipitation analysis. For the confirmation, the Flag-Skip expression vector expressing the Flag-Skip fused protein and the GFP-HDART expression protein expressing the GFP-HDART fused protein (FIG. 4A) were transfected into HEK293 cells by use of Effectene kit (QIAGEN™). It will be noted that a control experiment was conducted such that the Flag-Skip expression vector alone and the GFP-HDART expression vector were, respectively, transfected into cells of the same type under the same conditions.
24 hours after the transfection, the cells were lysed on ice for 30 minutes in a Nonidet P-40 buffer solution (50 mM Tris HCl (pH 7.6), 150 mM NaCl, 5 mM EDTA, 0.5% Nonidet P-40 and 1 mM PMSF) containing 100 μl of a protease inhibitory substance cocktail (Sigma #p8340) to prepare a cell extract (1 mg). This extract was incubated for 30 minutes at 4° C. along with 40 μl of protein A/G sepharose beads for preliminary clarification. Next, the thus clarified supernatant extract was further incubated for 1 hour along with an anti-Flag antibody or a negative control mouse IgG antibody (2 μg), followed by precipitation for 30 minutes by use of 40 μl of protein A/G sepharose beads. […]
Further, the interaction of endogenous HDART and externally introduced Skip was analyzed. […]

B1: HDART: HDAC associated repressor TPR protein, 855 amino acids, SEQ ID NO: 2; transcription repressing factor, used as fusions or expressed from vector (protein, listed as Homo sapiens)
chain: MVVMARLSRPERPDLVFEEEDLPYEEEIMRNQFSVKCWLRYIEFKQGAPKPRLNQLYERALKLLPCSYKLWYRYLKARRAQVKHRCVTDPAYEDVNNCHERAFVFMHKMPRLWLDYCQFLMDQGRVTHTRRTFDRALRALPITQHSRIWPLYLRFLRSHPLPETAVRGYRRFLKLSPESAEEYIEYLKSSDRLDEAAQRLATVVNDERFVSKAGKSNYQLWHELCDLISQNPDKVQSLNVDAIIRGGLTRFTDQLGKLWCSLADYYIRSGHFEKARDVYEEAIRTVMTVRDFTQVFDSYAQFEESMIAAKMETASELGREEEDDVDLELRLARFEQLISRRPLLLNSVLLRQNPHHVHEWHKRVALHQGRPREIINTYTEAVQTVDPFKATGKPHTLWVAFAKFYEDNGQLDDARVILEKATKVNFKQVDDLASVWCQCGELELRHENYDEALRLLRKATALPARRAEYFDGSEPVQNRVYKSLKVWSMLADLEESLGTFQSTKAVYDRILDLRIATPQIVINYAMFLEEHKYFEESFKAYERGISLFKWPNVSDIWSTYLTKFIARYGGRKLERARDLFEQALDGCPPKYAKTLYLLYAQLEEEWGLARHAMAVYERATRAVEPAQQYDMFNIYIKRAAEIYGVTHTRGIYQKAIEVLSDEHAREMCLRFADMECKLGEIDRARAIYSFCSQICDPRTTGAFWQTWKDFEVRHGNEDTIKEMLRIRRSVQATYNTQVNFMASQMLKVSGSATGTVSDLAPGQSGMDDMKLLEQRAEQLAAEAERDQPLRAQSKILFVRSDASREELAELAQQVNPEEIQLGEDEDEDEMDLEPNEVRLEQQSVPAAVFGSLKED
co-precipitation of endogenous HDART with Flag-Skip (293 cells, anti-Flag antibody): co-precipitated | interaction of foreign HDART (GFP-HDART) with Flag-Skip (co-expression in 293 cells, immunoprecipitation with anti-Flag antibody): specifically interact

Reference: patent US8889408B2, “Factor taking part in transcription control” (Sony Corporation, priority 2002, dated 2014)
